# Patent US20200317768A1 (published 2020)
# T1: cynomolgus monkey FcγRIIa1 extracellular domain, C-terminal His-tag (cynomolgus monkey)
# T1 construct: also called cyno FcγRIIa1; FcgRIIa1; not shown: His-tag added to the C-terminus
# T1 chain: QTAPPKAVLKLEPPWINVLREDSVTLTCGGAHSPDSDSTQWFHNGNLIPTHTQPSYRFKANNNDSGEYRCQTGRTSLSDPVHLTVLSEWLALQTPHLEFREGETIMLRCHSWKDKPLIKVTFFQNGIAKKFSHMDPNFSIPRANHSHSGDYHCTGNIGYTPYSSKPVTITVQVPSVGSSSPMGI
# Target: T1, cynomolgus monkey FcγRIIa1 …
# Test: SPR; KD of SG1 divided by KD of variant;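 note: relative to parent M103205H795-SG1 carrying the SG1 human heavy chain constant region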
# Method: The kinetic analysis of interactions between these antibodies and FcγR was carried out using BIACORE® T200 or BIACORE® 4000 (GE Healthcare). HBS-EP+ (GE Healthcare) was used as the running buffer, and the measurement temperature was set to 25° C. A chip produced by immobilizing Protein A. Protein A/G or mouse anti-human IgG kappa light chain (BD Biosciences) onto a Series S Sensor Chip CM4 or CM5 (GE Healthcare) by the amine-coupling method was used. […] After the measurement, the antibody captured on the chip was washed off by allowing reaction with 10 mM glycine-HCl, pH1.5 and 25 mM NaOH so that the chip was regenerated and used repeatedly. The sensorgrams obtained as measurement results were analyzed by the 1:1 Langmuir binding model using the BIACORE® Evaluation Software to calculate the binding rate constant ka (L/mol/s) and dissociation rate constant kd (l/s), and the dissociation constant KD (mol/L) was calculated from these values. […] Regarding such interactions, KD values were calculated using the following 1:1 binding model described in BIACORE® T100 Software Handbook BR1006-48 Edition AE.
row,Binder,KD fold (SG1 = 1) [fold]
1,"MS1032LO06-SG1 (M103205H795-SG1/M103202L889-SK1) (antibody, human IgG1, kappa, Anti-latent myostatin antibody) heavy: not shown light: DIVMTQSPATLSLSPGERATLSCTSSQSVYHANWLSWFQQKPGQPPKLLIYWASTLAYGVPSRFSGSGSGTDFTLTISSLQPEDAATYYCAGGYGGGRYAFGQGTKVEIKRTVAAPSVFIFPPSDEQLKSGTASVVCLLNNFYPREAKVQWKVDNALQSGNSQESVTEQDSKDSTYSLSSTLTLSKADYEKHKVYACEVTHQGLSSPVTKSFNRGEC",1
2,"MS1032LO06-MY351 (M103205H795-MY351/M103202L889-SK1) (antibody, human IgG1, kappa, CH MY351 = SG1 with G236N/H268D/Q311R/A330K/D413K (EU numbering); also called MS103205H795-MY351) heavy: QVTLKESGPVLVKPTETLTLTCTVSGIDLSHDDISWVRQAPGKGLEWVGIISYAGSTYYASWAKGRLTISKDTSKNQVVLTMTNMDPVDTATYYCARGVPAYSHGGDLWGQGTLVTVSSASTKGPSVFPLAPSSKSTSGGTAALGCLVKDYFPEPVTVSWNSGALTSGVHTFPAVLQSSGLYSLSSVVTVPSSSLGTQTYICNVNHKPSNTKVDKKVEPKSCDKTHTCPPCPAPELLNGPSVFLFPPKPKDTLMISRTPEVTCVVVDVSDEDPEVKFNWYVDGVEVHNAKTKPREEQYNSTYRVVSVLTVLHRDWLNGKEYKCKVSNKALPKPIEKTISKAKGQPREPQVYTLPPSREEMTKNQVSLTCLVKGFYPSDIAVEWESNGQPENNYKTTPPVLDSDGSFFLYSKLTVKKSRWQQGNVFSCSVMHEALHNHYTQKSLSLSP light: DIVMTQSPATLSLSPGERATLSCTSSQSVYHANWLSWFQQKPGQPPKLLIYWASTLAYGVPSRFSGSGSGTDFTLTISSLQPEDAATYYCAGGYGGGRYAFGQGTKVEIKRTVAAPSVFIFPPSDEQLKSGTASVVCLLNNFYPREAKVQWKVDNALQSGNSQESVTEQDSKDSTYSLSSTLTLSKADYEKHKVYACEVTHQGLSSPVTKSFNRGEC",3
3,"MS1032LO06-PK55 (M103205H795-PK55/M103202L889-SK1) (antibody, human IgG1, kappa, CH PK55 = SG1 with G236N/H268D/Q311R/A330K/P343R (EU numbering); also called MS103205H795-PK55) heavy: QVTLKESGPVLVKPTETLTLTCTVSGIDLSHDDISWVRQAPGKGLEWVGIISYAGSTYYASWAKGRLTISKDTSKNQVVLTMTNMDPVDTATYYCARGVPAYSHGGDLWGQGTLVTVSSASTKGPSVFPLAPSSKSTSGGTAALGCLVKDYFPEPVTVSWNSGALTSGVHTFPAVLQSSGLYSLSSVVTVPSSSLGTQTYICNVNHKPSNTKVDKKVEPKSCDKTHTCPPCPAPELLNGPSVFLFPPKPKDTLMISRTPEVTCVVVDVSDEDPEVKFNWYVDGVEVHNAKTKPREEQYNSTYRVVSVLTVLHRDWLNGKEYKCKVSNKALPKPIEKTISKAKGQRREPQVYTLPPSREEMTKNQVSLTCLVKGFYPSDIAVEWESNGQPENNYKTTPPVLDSDGSFFLYSKLTVDKSRWQQGNVFSCSVMHEALHNHYTQKSLSLSP light: DIVMTQSPATLSLSPGERATLSCTSSQSVYHANWLSWFQQKPGQPPKLLIYWASTLAYGVPSRFSGSGSGTDFTLTISSLQPEDAATYYCAGGYGGGRYAFGQGTKVEIKRTVAAPSVFIFPPSDEQLKSGTASVVCLLNNFYPREAKVQWKVDNALQSGNSQESVTEQDSKDSTYSLSSTLTLSKADYEKHKVYACEVTHQGLSSPVTKSFNRGEC",3.3
4,"MS1032LO06-PK57 (M103205H795-PK57/M103202L889-SK1) (antibody, human IgG1, kappa, CH PK57 = SG1 with G236N/H268D/Q311R/A330K/N384R/D413R (EU numbering); also called MS103205H795-PK57) heavy: QVTLKESGPVLVKPTETLTLTCTVSGIDLSHDDISWVRQAPGKGLEWVGIISYAGSTYYASWAKGRLTISKDTSKNQVVLTMTNMDPVDTATYYCARGVPAYSHGGDLWGQGTLVTVSSASTKGPSVFPLAPSSKSTSGGTAALGCLVKDYFPEPVTVSWNSGALTSGVHTFPAVLQSSGLYSLSSVVTVPSSSLGTQTYICNVNHKPSNTKVDKKVEPKSCDKTHTCPPCPAPELLNGPSVFLFPPKPKDTLMISRTPEVTCVVVDVSDEDPEVKFNWYVDGVEVHNAKTKPREEQYNSTYRVVSVLTVLHRDWLNGKEYKCKVSNKALPKPIEKTISKAKGQPREPQVYTLPPSREEMTKNQVSLTCLVKGFYPSDIAVEWESRGQPENNYKTTPPVLDSDGSFFLYSKLTVRKSRWQQGNVFSCSVMHEALHNHYTQKSLSLSP light: DIVMTQSPATLSLSPGERATLSCTSSQSVYHANWLSWFQQKPGQPPKLLIYWASTLAYGVPSRFSGSGSGTDFTLTISSLQPEDAATYYCAGGYGGGRYAFGQGTKVEIKRTVAAPSVFIFPPSDEQLKSGTASVVCLLNNFYPREAKVQWKVDNALQSGNSQESVTEQDSKDSTYSLSSTLTLSKADYEKHKVYACEVTHQGLSSPVTKSFNRGEC",2.5
5,"MS1032LO06-PK56 (M103205H795-PK56/M103202L889-SK1) (antibody, human IgG1, kappa, CH PK56 = SG1 with G236N/H268D/Q311R/A330K/P343R/D413R (EU numbering); also called MS103205H795-PK56) heavy: QVTLKESGPVLVKPTETLTLTCTVSGIDLSHDDISWVRQAPGKGLEWVGIISYAGSTYYASWAKGRLTISKDTSKNQVVLTMTNMDPVDTATYYCARGVPAYSHGGDLWGQGTLVTVSSASTKGPSVFPLAPSSKSTSGGTAALGCLVKDYFPEPVTVSWNSGALTSGVHTFPAVLQSSGLYSLSSVVTVPSSSLGTQTYICNVNHKPSNTKVDKKVEPKSCDKTHTCPPCPAPELLNGPSVFLFPPKPKDTLMISRTPEVTCVVVDVSDEDPEVKFNWYVDGVEVHNAKTKPREEQYNSTYRVVSVLTVLHRDWLNGKEYKCKVSNKALPKPIEKTISKAKGQRREPQVYTLPPSREEMTKNQVSLTCLVKGFYPSDIAVEWESNGQPENNYKTTPPVLDSDGSFFLYSKLTVRKSRWQQGNVFSCSVMHEALHNHYTQKSLSLSP light: DIVMTQSPATLSLSPGERATLSCTSSQSVYHANWLSWFQQKPGQPPKLLIYWASTLAYGVPSRFSGSGSGTDFTLTISSLQPEDAATYYCAGGYGGGRYAFGQGTKVEIKRTVAAPSVFIFPPSDEQLKSGTASVVCLLNNFYPREAKVQWKVDNALQSGNSQESVTEQDSKDSTYSLSSTLTLSKADYEKHKVYACEVTHQGLSSPVTKSFNRGEC",2.6
6,"MS1032LO06-MY352 (M103205H795-MY352/M103202L889-SK1) (antibody, human IgG1, kappa, name in EU numbering, Printed substitutions: G236N/H268D/Q311R/A330K/D413R (EU numbering); also called MS103205H795-MY352) heavy: QVTLKESGPVLVKPTETLTLTCTVSGIDLSHDDISWVRQAPGKGLEWVGIISYAGSTYYASWAKGRLTISKDTSKNQVVLTMTNMDPVDTATYYCARGVPAYSHGGDLWGQGTLVTVSSASTKGPSVFPLAPSSKSTSGGTAALGCLVKDYFPEPVTVSWNSGALTSGVHTFPAVLQSSGLYSLSSVVTVPSSSLGTQTYICNVNHKPSNTKVDKKVEPKSCDKTHTCPPCPAPELLNGPSVFLFPPKPKDTLMISRTPEVTCVVVDVSDEDPEVKFNWYVDGVEVHNAKTKPREEQYNSTYRVVSVLTVLHRDWLNGKEYKCKVSNKALPKPIEKTISKAKGQPREPQVYTLPPSREEMTKNQVSLTCLVKGFYPSDIAVEWESNGQPENNYKTTPPVLDSDGSFFLYSKLTVRKSRWQQGNVFSCSVMHEALHNHYTQKSLSLSP light: DIVMTQSPATLSLSPGERATLSCTSSQSVYHANWLSWFQQKPGQPPKLLIYWASTLAYGVPSRFSGSGSGTDFTLTISSLQPEDAATYYCAGGYGGGRYAFGQGTKVEIKRTVAAPSVFIFPPSDEQLKSGTASVVCLLNNFYPREAKVQWKVDNALQSGNSQESVTEQDSKDSTYSLSSTLTLSKADYEKHKVYACEVTHQGLSSPVTKSFNRGEC",2.7
7,"MS1032LO06-MY201 (M103205H795-MY201/M103202L889-SK1) (antibody, human IgG1, kappa, CH MY201 = SG1 with G236N/H268D/A330K (EU numbering); also called MS103205H795-MY201) heavy: QVTLKESGPVLVKPTETLTLTCTVSGIDLSHDDISWVRQAPGKGLEWVGIISYAGSTYYASWAKGRLTISKDTSKNQVVLTMTNMDPVDTATYYCARGVPAYSHGGDLWGQGTLVTVSSASTKGPSVFPLAPSSKSTSGGTAALGCLVKDYFPEPVTVSWNSGALTSGVHTFPAVLQSSGLYSLSSVVTVPSSSLGTQTYICNVNHKPSNTKVDKKVEPKSCDKTHTCPPCPAPELLNGPSVFLFPPKPKDTLMISRTPEVTCVVVDVSDEDPEVKFNWYVDGVEVHNAKTKPREEQYNSTYRVVSVLTVLHQDWLNGKEYKCKVSNKALPKPIEKTISKAKGQPREPQVYTLPPSREEMTKNQVSLTCLVKGFYPSDIAVEWESNGQPENNYKTTPPVLDSDGSFFLYSKLTVDKSRWQQGNVFSCSVMHEALHNHYTQKSLSLSP light: DIVMTQSPATLSLSPGERATLSCTSSQSVYHANWLSWFQQKPGQPPKLLIYWASTLAYGVPSRFSGSGSGTDFTLTISSLQPEDAATYYCAGGYGGGRYAFGQGTKVEIKRTVAAPSVFIFPPSDEQLKSGTASVVCLLNNFYPREAKVQWKVDNALQSGNSQESVTEQDSKDSTYSLSSTLTLSKADYEKHKVYACEVTHQGLSSPVTKSFNRGEC",3.2
